Results as given in the Immune Epitope Database (IEDB).
One block for each sequence: values may come before it.

Legend:
HLA-B*07:02 = assay: IEDB peptide-MHC binding, purified MHC/direct/fluorescence; filed as Kd, often an IC50 or EC50 that approximates it; ≥ and ≤ were set here for values at or beyond the usual limits of such assays
HLA-B*15:01 = assay: as above
HLA-A*03:01 = assay: as above
HLA-A*01:01 [1] = assay: as above
HLA-B*58:01 = assay: as above
HLA-B*27:05 = assay: as above
HLA-A*02:01 [2] = assay: as above
HLA-A*69:01 = assay: as above
HLA-B*40:01 = assay: as above
HLA-B*08:01 [3] = assay: IEDB peptide-MHC binding, purified MHC/competitive/radioactivity; filed as Kd, often an IC50 or EC50 that approximates it; ≥ and ≤ were set here for values at or beyond the usual limits of such assays
HLA-A*24:02 [4] = assay: IEDB peptide-MHC binding, purified MHC/competitive/fluorescence; ≥ and ≤ were set here for values at or beyond the usual limits of such assays
HLA-A*02:01 [5] = assay: IEDB peptide-MHC binding, purified MHC/competitive/fluorescence; filed as Kd, often an IC50 or EC50 that approximates it; ≥ and ≤ were set here for values at or beyond the usual limits of such assays
HLA-A*02:01 [6] = assay: IEDB peptide-MHC binding, purified MHC/competitive/fluorescence; ≥ and ≤ were set here for values at or beyond the usual limits of such assays; conditions: source organism: Vaccinia virus
HLA-B*39:01 = assay: IEDB peptide-MHC binding, purified MHC/competitive/fluorescence; filed as Kd, often an IC50 or EC50 that approximates it; ≥ and ≤ were set here for values at or beyond the usual limits of such assays; conditions: source organism: Escherichia coli str. K-12 substr. MG1655
HLA-A*02:06 = assay: IEDB peptide-MHC binding, purified MHC/competitive/radioactivity; filed as Kd, often an IC50 or EC50 that approximates it; ≥ and ≤ were set here for values at or beyond the usual limits of such assays; conditions: source organism: Vaccinia virus WR
HLA-A*02:03 = assay: as above
HLA-A*02:01 [7] = assay: as above
HLA-A*30:02 = assay: as above
HLA-A*29:02 = assay: as above
HLA-A*26:01 = assay: as above
HLA-A*23:01 = assay: as above; conditions: source organism: SARS coronavirus Tor2
HLA-A*24:02 [8] = assay: as above; conditions: source organism: SARS coronavirus Tor2
HLA-B*08:01 [9] = assay: IEDB peptide-MHC binding, purified MHC/direct/fluorescence; filed as Kd, often an IC50 or EC50 that approximates it; ≥ and ≤ were set here for values at or beyond the usual limits of such assays; conditions: source organism: SARS-CoV1
HLA-A*31:01 = assay: as above
HLA-A*11:01 = assay: as above; conditions: source organism: SARS-CoV1
HLA-A*02:02 = assay: IEDB peptide-MHC binding, purified MHC/competitive/radioactivity; filed as Kd, often an IC50 or EC50 that approximates it; ≥ and ≤ were set here for values at or beyond the usual limits of such assays; conditions: source organism: Vaccinia virus WR
HLA-B*51:01 = assay: as above; conditions: source organism: Dengue virus 3 Martinique/1243/1999
HLA-A*30:01 = assay: as above; conditions: source organism: Mammarenavirus guanaritoense
HLA-A*01:01 [10] = assay: as above; conditions: source organism: Mammarenavirus guanaritoense
HLA-A*32:01 = assay: as above; conditions: source organism: Mammarenavirus guanaritoense
[11] = source organism: Giardia lamblia ATCC 50803
[12] = source organism: Vaccinia virus WR
[13] = source organism: Zaire ebolavirus
[14] = source organism: SARS coronavirus Tor2
[15] = source organism: Dengue virus 4 Philippines/H241/1956
[16] = source organism: Salmonella enterica subsp. enterica serovar Typhimurium
[17] = source organism: Mammarenavirus guanaritoense
[18] = source organism: Lassa virus Josiah

Sequence: ATSGYRIAY
Kd (HLA-B*07:02; [11]): ≥ 20000 nM
Kd (HLA-B*15:01; [11]): 45 nM
Kd (HLA-A*03:01; [11]): ≥ 20000 nM
Kd (HLA-A*01:01 [1]; [11]): 68.7 nM
Kd (HLA-B*58:01; [11]): 1650 nM
Kd (HLA-B*27:05; [11]): ≥ 20000 nM
Kd (HLA-A*02:01 [2]; [11]): ≥ 20000 nM

Kd (HLA-B*07:02; source organism: Homo sapiens): 16400 nM
Kd (HLA-A*69:01; source organism: Homo sapiens): 119 nM
Sequence: DAYRRIHSL

Sequence: DECEFELAL
Kd (HLA-B*40:01; source organism: Mycobacterium tuberculosis): 803 nM

Sequence: EAKRKLTEL
Kd (HLA-B*08:01 [3]; [12]): 2.45 nM

Sequence: EAMNEENRF
IC50 (HLA-A*24:02 [4]; [13]): ≥ 147000 nM

Sequence: EARKTFVEL
Kd (HLA-B*08:01 [3]; source organism: Dengue virus 1 Brazil/97-11/1997): 97.1 nM

Sequence: EDPSSGYYS
IC50 (HLA-A*24:02 [4]; [13]): ≥ 185000 nM

Sequence: EKIIHFLTI
Kd (HLA-B*08:01 [3]; [12]): 5.04 nM

Kd (HLA-A*02:01 [5]; source organism: Escherichia coli): 1.8 nM
Sequence: ELLEPLYDV

Sequence: EPKISLLPL
Kd (HLA-B*08:01 [3]; [12]): 8.53 nM

Sequence: FGNLSPETL
IC50 (HLA-A*24:02 [4]; source organism: Vaccinia virus): 57800 nM
IC50 (HLA-A*02:01 [6]): 59500 nM

Kd (HLA-B*39:01): 3470 nM
Sequence: FHNDSTPRY

Sequence: FLNISWFYI
Kd (HLA-A*02:06): 0.667 nM
Kd (HLA-A*02:03; [12]): 1.1 nM
Kd (HLA-A*02:01 [7]; [12]): 0.0142 nM

Sequence: FMGRIRSVY
Kd (HLA-A*30:02; [14]): 0.157 nM
Kd (HLA-A*29:02; [14]): 1.7 nM
Kd (HLA-A*26:01; [14]): 2240 nM
Kd (HLA-A*23:01): ≥ 77800 nM
Kd (HLA-A*24:02 [8]): ≥ 55900 nM
Kd (HLA-B*08:01 [9]): 604 nM
Kd (HLA-B*15:01; source organism: SARS-CoV1): 393 nM
Kd (HLA-A*03:01; source organism: SARS-CoV1): 2340 nM
Kd (HLA-A*01:01 [1]; source organism: SARS-CoV1): 5870 nM
Kd (HLA-B*58:01; source organism: SARS-CoV1): 6000 nM
Kd (HLA-A*31:01; source organism: SARS-CoV1): 123 nM
Kd (HLA-A*11:01): 18200 nM
Kd (HLA-A*02:01 [2]; source organism: SARS-CoV1): 9160 nM

Sequence: FNKTIFLSE
Kd (HLA-B*08:01 [3]; [12]): 255 nM

Sequence: FTFSNVCESV
Kd (HLA-A*02:01 [5]; source organism: Vaccinia virus Tian Tan): 8.4 nM

Sequence: FVNFNSVKNL
Kd (HLA-A*02:06): 2200 nM
Kd (HLA-A*02:02): 2020 nM
Kd (HLA-A*02:03; [12]): 318 nM
Kd (HLA-A*02:01 [5]; source organism: Vaccinia virus L-IPV): 489 nM

Sequence: GEEFFHQYL
Kd (HLA-B*40:01; source organism: Mammarenavirus juninense): 10.2 nM

Sequence: GIMAVGLVSL
Kd (HLA-B*08:01 [3]; [15]): 1230 nM
Kd (HLA-A*02:03; [15]): 24.1 nM

Sequence: GMFGGCFAA
Kd (HLA-B*15:01; [16]): 161 nM
Kd (HLA-A*31:01; [16]): 1220 nM
Kd (HLA-A*02:01 [2]; [16]): 10 nM
Kd (HLA-A*69:01; [16]): 2770 nM

Sequence: GMKAFTAAV
Kd (HLA-B*15:01; [16]): 59 nM
Kd (HLA-A*31:01; [16]): 74.8 nM
Kd (HLA-B*27:05; [16]): 7260 nM
Kd (HLA-A*02:01 [2]; [16]): 281 nM
Kd (HLA-A*69:01; [16]): 3560 nM

Sequence: GPLVAGGLLI
Kd (HLA-B*51:01): 6030 nM

Sequence: GTDPYRPSF
Kd (HLA-A*30:02; [17]): 5280 nM
Kd (HLA-A*29:02; [17]): 11000 nM
Kd (HLA-A*30:01): ≥ 30300 nM
Kd (HLA-A*26:01; [17]): ≥ 77900 nM
Kd (HLA-A*01:01 [10]): 7150 nM
Kd (HLA-A*32:01): 2430 nM

Sequence: HEHDQIGDI
IC50 (HLA-A*24:02 [4]; source organism: Variola virus): 23800 nM

Sequence: IMKNHLRDI
Kd (HLA-A*02:01 [7]; [18]): 12500 nM

Sequence: IMVGNETGL
Kd (HLA-A*02:01 [7]; [18]): 4170 nM
